Experimental data from patent US20220298223A1 (KING S COLLEGE LONDON, published 2022).

T1: human CD19 expressed on LO68 tumor cells (human, UniProt P15391 20-556)
T1 construct: whole, on cells; also called CD19+ LO68 tumor cells; CD19-engineered LO68 tumor cells
T1 sequence (looked up): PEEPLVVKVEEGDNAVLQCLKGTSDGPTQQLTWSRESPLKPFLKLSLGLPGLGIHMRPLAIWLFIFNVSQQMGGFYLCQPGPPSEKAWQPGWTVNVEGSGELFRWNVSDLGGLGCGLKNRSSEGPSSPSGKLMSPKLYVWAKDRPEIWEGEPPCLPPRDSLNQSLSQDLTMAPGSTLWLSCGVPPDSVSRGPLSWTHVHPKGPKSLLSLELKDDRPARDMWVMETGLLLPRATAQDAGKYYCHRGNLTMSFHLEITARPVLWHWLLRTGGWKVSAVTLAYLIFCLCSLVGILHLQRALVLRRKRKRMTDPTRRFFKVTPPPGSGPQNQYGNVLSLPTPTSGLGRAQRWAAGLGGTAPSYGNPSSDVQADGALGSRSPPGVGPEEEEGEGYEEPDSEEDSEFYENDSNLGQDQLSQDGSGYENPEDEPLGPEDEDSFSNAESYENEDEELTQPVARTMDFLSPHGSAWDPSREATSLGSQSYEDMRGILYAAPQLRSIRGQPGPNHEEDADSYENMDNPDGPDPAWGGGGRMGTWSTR


Target: T1, human CD19 expressed on LO68 tumor cells
Assay: z-Movi microfluidic chip, CAR T cells on a monolayer of CD19+ LO68 tumor cells, force ramp, percent bound T cells
Description: CD19-engineered LO68 tumor cells were seeded in a z-Movi microfluidic chip and cultured for 16 hours. The next day, flow sorted CAR-T cells were serially flowed in the chips and incubated with the target cells for 5 minutes prior to initializing a 3-minute linear force ramp. Cell detachment was determined using post-experiment using image analysis techniques.
Increasing fluidic force was applied and the percentage of bound T-cells was determined (median, n=3). […] Data are presented as median rForce which is the relative force required to elicit cell detachment, calibrated to […] polystyrene beads. Since data were not normally distributed, they are presented as median rForce which is the relative force required to elicit cell detachment and calibrated to […] polystyrene beads. […] Data shown are mean±standard error (n=11 runs, 3 independent donors). […] For clarity, a single representative run for one healthy donor is plotted in which each dot represents a single cell.

Binder | binding result
G02 second generation CAR (F-2 with the second glycine of FMC63 VH CDR3 substituted by alanine), expressed on human T cells (other, CAR on transduced human T cells; also called FMC63(G02)) DIQMTQTTSSLSASLGDRVTISCRASQDISKYLNWYQQKPDGTVKLLIYHTSRLHSGVPSRFSGSGSGTDYSLTISNLEQEDIATYFCQQGNTLPYTFGGGTKLEITGGGGSGGGGSGGGGSEVKLQESGPGLVAPSQSLSVTCTVSGVSLPDYGVSWIRQPPRKGLEWLGVIWGSETTYYNSALKSRLTIIKDNSKSQVFLKMNSLQTDDTAIYYCAKHYYYGASYAMDYWGQGTSVTVSSAAAIEVEQKLISEEDLLDNEKSNGTIIHVKGKHLCPSPLFPGPSKPFWVLVVVGGVLACYSLLVTVAFIIFWVRSKRSRLLHSDYMNMTPRRPGPTRKHYQPYAPPRDFAAYRSRVKFSRSADAPAYQQGQNQLYNELNLGRREEYDVLDKRRGRDPEMGGKPRRKNPQEGLYNELQKDKMAEAYSEIGMKGERRRGKGHDGLYQGLSTATKDTYDALHMQALPPR | binds
Y03 second generation CAR (F-2 with the third tyrosine of FMC63 VH CDR3 substituted by alanine), expressed on human T cells (other, CAR on transduced human T cells; also called FMC63(Y03)) DIQMTQTTSSLSASLGDRVTISCRASQDISKYLNWYQQKPDGTVKLLIYHTSRLHSGVPSRFSGSGSGTDYSLTISNLEQEDIATYFCQQGNTLPYTFGGGTKLEITGGGGSGGGGSGGGGSEVKLQESGPGLVAPSQSLSVTCTVSGVSLPDYGVSWIRQPPRKGLEWLGVIWGSETTYYNSALKSRLTIIKDNSKSQVFLKMNSLQTDDTAIYYCAKHYYAGGSYAMDYWGQGTSVTVSSAAAIEVEQKLISEEDLLDNEKSNGTIIHVKGKHLCPSPLFPGPSKPFWVLVVVGGVLACYSLLVTVAFIIFWVRSKRSRLLHSDYMNMTPRRPGPTRKHYQPYAPPRDFAAYRSRVKFSRSADAPAYQQGQNQLYNELNLGRREEYDVLDKRRGRDPEMGGKPRRKNPQEGLYNELQKDKMAEAYSEIGMKGERRRGKGHDGLYQGLSTATKDTYDALHMQALPPR | binds

The remaining lines, values ahead:

binding result | Binder
binds | Y04 second generation CAR (F-2 with the fourth tyrosine of FMC63 VH CDR3 substituted by alanine), expressed on human T cells (other, CAR on transduced human T cells; also called FMC63(Y04)) DIQMTQTTSSLSASLGDRVTISCRASQDISKYLNWYQQKPDGTVKLLIYHTSRLHSGVPSRFSGSGSGTDYSLTISNLEQEDIATYFCQQGNTLPYTFGGGTKLEITGGGGSGGGGSGGGGSEVKLQESGPGLVAPSQSLSVTCTVSGVSLPDYGVSWIRQPPRKGLEWLGVIWGSETTYYNSALKSRLTIIKDNSKSQVFLKMNSLQTDDTAIYYCAKHYYYGGSAAMDYWGQGTSVTVSSAAAIEVEQKLISEEDLLDNEKSNGTIIHVKGKHLCPSPLFPGPSKPFWVLVVVGGVLACYSLLVTVAFIIFWVRSKRSRLLHSDYMNMTPRRPGPTRKHYQPYAPPRDFAAYRSRVKFSRSADAPAYQQGQNQLYNELNLGRREEYDVLDKRRGRDPEMGGKPRRKNPQEGLYNELQKDKMAEAYSEIGMKGERRRGKGHDGLYQGLSTATKDTYDALHMQALPPR
binds | Y01 second generation CAR (F-2 with the first tyrosine of FMC63 VH CDR3 substituted by alanine), expressed on human T cells (other, CAR on transduced human T cells; also called FMC63(Y01)) DIQMTQTTSSLSASLGDRVTISCRASQDISKYLNWYQQKPDGTVKLLIYHTSRLHSGVPSRFSGSGSGTDYSLTISNLEQEDIATYFCQQGNTLPYTFGGGTKLEITGGGGSGGGGSGGGGSEVKLQESGPGLVAPSQSLSVTCTVSGVSLPDYGVSWIRQPPRKGLEWLGVIWGSETTYYNSALKSRLTIIKDNSKSQVFLKMNSLQTDDTAIYYCAKHAYYGGSYAMDYWGQGTSVTVSSAAAIEVEQKLISEEDLLDNEKSNGTIIHVKGKHLCPSPLFPGPSKPFWVLVVVGGVLACYSLLVTVAFIIFWVRSKRSRLLHSDYMNMTPRRPGPTRKHYQPYAPPRDFAAYRSRVKFSRSADAPAYQQGQNQLYNELNLGRREEYDVLDKRRGRDPEMGGKPRRKNPQEGLYNELQKDKMAEAYSEIGMKGERRRGKGHDGLYQGLSTATKDTYDALHMQALPPR
